One substance from patent publication US20240361320A1 can be followed below.

This test concerns the target SARS-CoV-2 3CL^pro enzyme (Recombinant derived from Escherichia coli, ab277614, ABCAM; SEQ ID NO:2) (SARS-CoV-2) (UniProt P0DTC1). Briefly: cell-based or functional assay.

As for “myoglobin antibody (Monoclonal rabbit-derived, ab77232, ABCAM; binding to SEQ ID NO:5)”, the oxidation peak shift (ΔEPeak) of pBQ came out at 0 mV.
